Measured values published in patent US20250228957A1 (BIOHAVEN THERAPEUTICS, published 2025).

Assays:
[1] = target: Deglycosylated IgA (dg-IgA) (human, UniProt P01876-1 1-353, Human serum IgA was treated with PNGase, neuraminidase, and galactosidase; conjugated to Alexa Fluor 594 in the cell uptake assays); test: cell-based or functional assay
[2] = target: Total IgA; test: cell-based or functional assay

Chain of Deglycosylated IgA (dg-IgA) (P01876 other isoform, or with tags, fused parts or gaps): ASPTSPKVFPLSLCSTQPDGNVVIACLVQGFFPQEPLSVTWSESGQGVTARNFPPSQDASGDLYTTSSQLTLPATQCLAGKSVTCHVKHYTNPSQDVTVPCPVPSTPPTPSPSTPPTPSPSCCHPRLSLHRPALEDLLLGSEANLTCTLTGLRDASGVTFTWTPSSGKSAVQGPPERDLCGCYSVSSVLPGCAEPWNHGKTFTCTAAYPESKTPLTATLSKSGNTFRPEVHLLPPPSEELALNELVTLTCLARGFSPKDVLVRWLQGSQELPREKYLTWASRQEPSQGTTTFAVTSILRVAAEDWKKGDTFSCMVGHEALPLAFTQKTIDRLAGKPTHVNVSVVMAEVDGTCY

B1: ABT030 (chimeric LALA PA mutant Km55 antibody) (antibody, human IgG1, kappa, L234A L235A, V domains shown)
VH: ELQLQESGPGLVKPSQSLSLTCSVTGYSIRSNYWGWIRKFPGNKMEWMGYITYSGGTYYNPSLKSRISITRDTSKNQFFLQLTSVTTEDTATYYCTRWGDWYFDFWGPGTKVTVSP
VL: DVVLTQTPPPLSVAIGQSVSISCKSSQSLVHTDGKTYLHWLLQSPGQSPKLLIYQVSNLGSGVPDRFSGTGSQKDFTLKISRVEAEDLGVYYCVQATHFPLTFGIGTKLELQR
B1 was tested, and the “EC50, Assay #1, uptake of A594-labelled cargo by HEK293 (+ASGPR) cells” value [1] was 0.353 nM, the “EC50, Assay #3, uptake of A594-labelled cargo by HEK293 (+ASGPR) cells” value [1] was 3.53 nM and the “S/N, Assay #1, uptake of A594-labelled cargo by HEK293 (+ASGPR) cells” value [1] was 4.3 signal-to-noise ratio. The “S/N, Assay #2, uptake of A594-labelled cargo by HEK293 (+ASGPR) cells” value [1] was 3.7 signal-to-noise ratio, the “S/N, Assay #3, uptake of A594-labelled cargo by HEK293 (+ASGPR) cells” value [1] was 7.1 signal-to-noise ratio and the “EC50, Assay #1, uptake of A594-labelled cargo by HEK293 (+ASGPR) cells” value [2] was 7.15 nM.
